Results on two molecules are retold here after patent US20220233705A1, “COMBINED THERAPIES OF ACTIVATABLE IMMUNE CHECKPOINT INHIBITORS AND CONJUGATED ACTIVATABLE ANTIBODIES” (CYTOMX THERAPEUTICS, INC., priority 2019, published 2022).

Data set [1] concerns CT26 huCD166 cells. Description: Calreticulin surface expression on CT26 huCD166 cells. It counts as cell-based, mouse. The settings on record: CT26 huCD166, 72 hours. The method, then:
(§1) ICD can be measured by markers such as the expression of calreticulin on the surface of cancer cells and secretion of HMGB1. In this exemplary study, A375 cells (ATCC) derived from a human malignant melanoma were cultured in RPMI-1640™ medium with 10% (v/v) fetal bovine serum for 48 hours in the presence of the indicated amount of drug. HCC1806 cells (ATCC) derived from human breast carcinoma were cultured in DME medium for 48 hours in the presence of the indicated amount of drug. CT26 cells and CT26 huCD166 cells (CT26 cells expressing human CD166 polypeptide as discussed herein) were cultured in RPMI-1640™ medium with 10% (v/v) fetal bovine serum for 72 hours in the presence of the indicated amount of drug. Following incubation, calreticulin expression was detected by flow cytometry using a FITC conjugated calreticulin antibody (Novus Bio, clone 1G6A7; #NBP1-47518F). HMGB1 protein was detected by ELISA (Tecan HMGB1 ELISA kit, #NC9959947).

The test system of data set [2] is CT26 cells. Description: Calreticulin surface expression on CT26 cells. It counts as cell-based, mouse. The settings on record: CT26, 72 hours. The method, then: as §1
For data set [3], the system named is dendritic cells (MoDCs). Description: Dendritic cell maturation markers by flow cytometry. It counts as cell-based, human. Set-up: dose or concentration left out as unconfirmed. The settings on record: 48 hours, compared to untreated cells. The procedure:
In this study, dendritic cells were cultured with […] anti-CD166 antibody conjugated to DM4 (CD166-DM4 ADC) or a dendritic cell maturation cocktail (Stem Cell Technology DC maturation kit (#10989)) for 48 hours. […] The MoDCs were then assessed for maturation by flow cytometric measurement of dendritic cell maturation markers CD80 (2D10 antibody, BioLegend), CD83 (HB15e antibody, BioLegend), HLA-DR (L243 antibody, BioLegend), and CD86 (IT2.2 antibody, BioLegend).
On the technique in general: A flow cytometer gives signals particle by particle.

In data set [4] the test system is A375 cells. Put plainly: Immunogenic cell death markers in A375 cells. It counts as cell-based, human. The settings on record: A375, 48 hours; for secreted HMGB1: ELISA. The procedure:
as §1

Data set [5] deals with HCC1806 cells. Description: Immunogenic cell death markers in HCC1806 cells. It counts as cell-based, human. The settings on record: HCC1806, 48 hours; for secreted HMGB1: ELISA. The procedure:
as §1

The test system of data set [6] is activated human T cells. Description: Cytotoxicity towards activated T cells (CellTiter-Glo). In general terms: In ATP-based viability assays light output follows the ATP content of the culture.
Data set [7] deals with allogenic CD4+ T cells co-cultured with MoDCs. It counts as cell-based, human.
For data set [8], the system named is human dendritic cells (MoDC). Description: Cytotoxicity towards fully activated MoDC (CytoTox-Glo). The settings on record: 48 hours.

For the molecule `COc1cc2cc(c1Cl)N(C)C(=O)C[C@H](OC(=O)[C@H](C)N(C)C(=O)CCC(C)(C)S)[C@]1(C)O[C@H]1[C@H](C)[C@@H]1C[C@@](O)(NC(=O)O1)[C@H](OC)/C=C/C=C(\C)C2` [free DM4, DM4, reference compound], the “surface expression of calreticulin (CRT)” value in data set [1] is listed as “increased surface expression”. Also, the “surface expression of calreticulin (CRT)” value in data set [2] is on record as “increased surface expression”. Moreover, in data set [3], the “expression of CD83” value is “slightly increased” and the “expression of CD86” value is on record as “slightly increased”. Besides, in data set [4], the “expression of calreticulin (CRT)” value is recorded as “increased expression” and the “secreted HMGB1” value is “increased amounts”. Also, in data set [5], the “expression of calreticulin (CRT)” value is reported as “increased expression” and the “secreted HMGB1” value is listed as “increased amounts”.

B1: anti-CD166 ADC (conjugate)
VH: QITLKESGPTLVKPTQTLTLTCTFSGFSLSTYGMGVGWIRQPPGKALEWLANIWWSEDKHYSPSLKSRLTITKDTSKNQVVLTITNVDPVDTATYYCVQIDYGNDYAFTYWGQGTLVTVSS
VL: DIVMTQSPLSLPVTPGEPASISCRSSKSLLHSNGITYLYWYLQKPGQSPQLLIYQMSNLASGVPDRFSGSGSGTDFTLKISRVEAEDVGVYYCAQNLELPYTFGQGTKLEIK
With B1, the “surface expression of calreticulin (CRT)” value in data set [1] and in data set [2] was “increased surface expression” throughout. For the same molecule, the “expression of CD83” value in data set [3] is reported as “slightly increased”. Also, the “expression of CD86” value in data set [3] was “slightly increased”. Moreover, the “cytotoxic activity towards activated T cells” value in data set [6] (72 hours treatment) is given as “minimal cytotoxic activity”. In addition, the “doses at which cytotoxicity was observed” value in data set [6] (activated T cells, 72 hours) is “above 10 nM”; in data set [8] (fully activated MoDC) it was “above 10 nM”. The “expression of calreticulin (CRT)” value in data set [4] and in data set [5] was “increased expression” each time. Moreover, the “secreted HMGB1” value in data set [4] and in data set [5] was “increased amounts” throughout. For the same molecule, in data set [7], the “production of IL-2 by allogeneic T cells” value is recorded as “slightly increase”. In data set [8], the “cytotoxic activity towards MoDCs” value is on record as “minimal cytotoxic activity”.
